The results in this text go back to US20230395193A1 (priority 2020, published 2023).

For the assay, the system named is SARS-CoV-1, MERS-CoV and SARS-CoV-2 proteins in HEK293T cells. Details: species or system human.

B1: M-Q9UI26 (protein, UniProt Q9UI26 1-975, looked up)
Importin-11: MDLNSASTVVLQVLTQATSQDTAVLKPAEEQLKQWETQPGFYSVLLNIFTNHTLDINVRWLAVLYFKHGIDRYWRRVAPHALSEEEKTTLRAGLITNFNEPINQIATQIAVLIAKVARLDCPRQWPELIPTLIESVKVQDDLRQHRALLTFYHVTKTLASKRLAADRKLFYDLASGIYNFACSLWNHHTDTFLQEVSSGNEAAILSSLERTLLSLKVLRKLTVNGFVEPHKNMEVMGFLHGIFERLKQFLECSRSIGTDNVCRDRLEKTIILFTKVLLDFLDQHPFSFTPLIQRSLEFSVSYVFTEVGEGVTFERFIVQCMNLIKMIVKNYAYKPSKNFEDSSPETLEAHKIKMAFFTYPTLTEICRRLVSHYFLLTEEELTMWEEDPEGFTVEETGGDSWKYSLRPCTEVLFIDIFHEYNQTLTPVLLEMMQTLQGPTNVEDMNALLIKDAVYNAVGLAAYELFDSVDFDQWFKNQLLPELQVIHNRYKPLRRRVIWLIGQWISVKFKSDLRPMLYEAICNLLQDQDLVVRIETATTLKLTVDDFEFRTDQFLPYLETMFTLLFQLLQQVTECDTKMHVLHVLSCVIERVNMQIRPYVGCLVQYLPLLWKQSEEHNMLRCAILTTLIHLVQGLGADSKNLYPFLLPVIQLSTDVSQPPHVYLLEDGLELWLVTLENSPCITPELLRIFQNMSPLLELSSENLRTCFKIINGYIFLSSTEFLQTYAVGLCQSFCELLKEITTEGQVQVLKVVENALKVNPILGPQMFQPILPYVFKGIIEGERYPVVMSTYLGVMGRVLLQNTSFFSSLLNEMAHKFNQEMDQLLGNMIEMWVDRMDNITQPERRKLSALALLSLLPSDNSVIQDKFCGIINISVEGLHDVMTEDPETGTYKDCMLMSHLEEPKVTEDEEPPTEQDKRKKMLALKDPVHTVSLQQFIYEKLKAQQEMLGEQGFQSLMETVDTEIVTQLQEFLQGF
modifications: interactor of M protein
As to B1, the MIST_MERS was found to be 0.9937, the MIST_SARS1 is 0.6822, the MIST_SARS2 was 0.6494 and the Saint_MERS is given as 0.99. The molecule also showed a Saint_SARS1 of 1 and a Saint_SARS2 of 1.

B2: M-Q9UBU6 (protein, UniProt Q9UBU6 1-413, looked up)
Protein FAM8A1: MAEGPEEARGHPPGQDDGGGDHEPVPSLRGPPTTAVPCPRDDPQAEPQAPGRPTAPGLAAAAAADKLEPPRELRKRGEAASGSGAELQEQAGCEAPEAAAPRERPARLSAREYSRQVHEWLWQSYCGYLTWHSGLAAFPAYCSPQPSPQSFPSGGAAVPQAAAPPPPQLGYYNPFYFLSPGAAGPDPRTAAGISTPAPVAGLGPRAPHVQASVRATPVTRVGSAAPSRSPSETGRQAGREYVIPSLAHRFMAEMVDFFILFFIKATIVLSIMHLSGIKDISKFAMHYIIEEIDEDTSMEDLQKMMVVALIYRLLVCFYEIICIWGAGGATPGKFLLGLRVVTCDTSVLIAPSRVLVIPSSNVSITTSTIRALIKNFSIASFFPAFITLLFFQHNRTAYDIVAGTIVVKRNGVR
modifications: interaction partner of viral M protein
In turn, B2 gave an MIST_MERS of 0, an MIST_SARS1 of 0.88, an MIST_SARS2 of 0.8045 and a Saint_MERS of 0. This molecule registered a Saint_SARS1 of 0.63 and a Saint_SARS2 of 0.97.

B3: M-Q9NVI1 (protein, UniProt Q9NVI1 1-1328, looked up)
Fanconi anemia group I protein: MDQKILSLAAEKTADKLQEFLQTLREGDLTNLLQNQAVKGKVAGALLRAIFKGSPCSEEAGTLRRRKIYTCCIQLVESGDLQKEIASEIIGLLMLEAHHFPGPLLVELANEFISAVREGSLVNGKSLELLPIILTALATKKENLAYGKGVLSGEECKKQLINTLCSGRWDQQYVIQLTSMFKDVPLTAEEVEFVVEKALSMFSKMNLQEIPPLVYQLLVLSSKGSRKSVLEGIIAFFSALDKQHNEEQSGDELLDVVTVPSGELRHVEGTIILHIVFAIKLDYELGRELVKHLKVGQQGDSNNNLSPFSIALLLSVTRIQRFQDQVLDLLKTSVVKSFKDLQLLQGSKFLQNLVPHRSYVSTMILEVVKNSVHSWDHVTQGLVELGFILMDSYGPKKVLDGKTIETSPSLSRMPNQHACKLGANILLETFKIHEMIRQEILEQVLNRVVTRASSPISHFLDLLSNIVMYAPLVLQSCSSKVTEAFDYLSFLPLQTVQRLLKAVQPLLKVSMSMRDCLILVLRKAMFANQLDARKSAVAGFLLLLKNFKVLGSLSSSQCSQSLSVSQVHVDVHSHYNSVANETFCLEIMDSLRRCLSQQADVRLMLYEGFYDVLRRNSQLANSVMQTLLSQLKQFYEPKPDLLPPLKLEACILTQGDKISLQEPLDYLLCCIQHCLAWYKNTVIPLQQGEEEEEEEEAFYEDLDDILESITNRMIKSELEDFELDKSADFSQSTSIGIKNNICAFLVMGVCEVLIEYNFSISSFSKNRFEDILSLFMCYKKLSDILNEKAGKAKTKMANKTSDSLLSMKFVSSLLTALFRDSIQSHQESLSVLRSSNEFMRYAVNVALQKVQQLKETGHVSGPDGQNPEKIFQNLCDITRVLLWRYTSIPTSVEESGKKEKGKSISLLCLEGLQKIFSAVQQFYQPKIQQFLRALDVTDKEGEEREDADVSVTQRTAFQIRQFQRSLLNLLSSQEEDFNSKEALLLVTVLTSLSKLLEPSSPQFVQMLSWTSKICKENSREDALFCKSLMNLLFSLHVSYKSPVILLRDLSQDIHGHLGDIDQDVEVEKTNHFAIVNLRTAAPTVCLLVLSQAEKVLEEVDWLITKLKGQVSQETLSEEASSQATLPNQPVEKAIIMQLGTLLTFFHELVQTALPSGSCVDTLLKDLCKMYTTLTALVRYYLQVCQSSGGIPKNMEKLVKLSGSHLTPLCYSFISYVQNKSKSLNYTGEKKEKPAAVATAMARVLRETKPIPNLIFAIEQYEKFLIHLSKKSKVNLMQHMKLSTSRDFKIKGNILDMVLREDGEDENEEGTASEHGGQNKEPAKKKRKK
modifications: interactor of viral M protein
In turn, B3 had an MIST_MERS of 0.8133, an MIST_SARS1 of 0.7245, an MIST_SARS2 of 0.5573 and a Saint_MERS of 1. The molecule also had a Saint_SARS1 of 1 and a Saint_SARS2 of 1.

B4: M-Q9UKV5 (protein, UniProt Q9UKV5 1-643, looked up)
E3 ubiquitin-protein ligase …: MPLLFLERFPWPSLRTYTGLSGLALLGTIISAYRALSQPEAGPGEPDQLTASLQPEPPAPARPSAGGPRARDVAQYLLSDSLFVWVLVNTACCVLMLVAKLIQCIVFGPLRVSERQHLKDKFWNFIFYKFIFIFGVLNVQTVEEVVMWCLWFAGLVFLHLMVQLCKDRFEYLSFSPTTPMSSHGRVLSLLVAMLLSCCGLAAVCSITGYTHGMHTLAFMAAESLLVTVRTAHVILRYVIHLWDLNHEGTWEGKGTYVYYTDFVMELTLLSLDLMHHIHMLLFGNIWLSMASLVIFMQLRYLFHEVQRRIRRHKNYLRVVGNMEARFAVATPEELAVNNDDCAICWDSMQAARKLPCGHLFHNSCLRSWLEQDTSCPTCRMSLNIADNNRVREEHQGENLDENLVPVAAAEGRPRLNQHNHFFHFDGSRIASWLPSFSVEVMHTTNILGITQASNSQLNAMAHQIQEMFPQVPYHLVLQDLQLTRSVEITTDNILEGRIQVPFPTQRSDSIRPALNSPVERPSSDQEEGETSAQTERVPLDLSPRLEETLDFGEVEVEPSEVEDFEARGSRFSKSADERQRMLVQRKDELLQQARKRFLNKSSEDDAASESFLPSEGASSDPVTLRRRMLAAAAERRLQKQQTS
Molecule B4 registered an MIST_MERS of 0.2719, an MIST_SARS1 of 0.9871, an MIST_SARS2 of 0.04352 and a Saint_MERS of 0. This molecule registered a Saint_SARS1 of 1 and a Saint_SARS2 of 1.
